According to US20100183623A1 (INHIBITEX, published 2010):

T1: SdrF N1N2N3 (52-679), His-tagged recombinant A domain of S. epidermidis SdrF (Staphylococcus epidermidis (K28 genomic …, UniProt Q9KI14 53-678))
T1 construct: expressed in E. coli; also called SdrF A domain
T1 sequence: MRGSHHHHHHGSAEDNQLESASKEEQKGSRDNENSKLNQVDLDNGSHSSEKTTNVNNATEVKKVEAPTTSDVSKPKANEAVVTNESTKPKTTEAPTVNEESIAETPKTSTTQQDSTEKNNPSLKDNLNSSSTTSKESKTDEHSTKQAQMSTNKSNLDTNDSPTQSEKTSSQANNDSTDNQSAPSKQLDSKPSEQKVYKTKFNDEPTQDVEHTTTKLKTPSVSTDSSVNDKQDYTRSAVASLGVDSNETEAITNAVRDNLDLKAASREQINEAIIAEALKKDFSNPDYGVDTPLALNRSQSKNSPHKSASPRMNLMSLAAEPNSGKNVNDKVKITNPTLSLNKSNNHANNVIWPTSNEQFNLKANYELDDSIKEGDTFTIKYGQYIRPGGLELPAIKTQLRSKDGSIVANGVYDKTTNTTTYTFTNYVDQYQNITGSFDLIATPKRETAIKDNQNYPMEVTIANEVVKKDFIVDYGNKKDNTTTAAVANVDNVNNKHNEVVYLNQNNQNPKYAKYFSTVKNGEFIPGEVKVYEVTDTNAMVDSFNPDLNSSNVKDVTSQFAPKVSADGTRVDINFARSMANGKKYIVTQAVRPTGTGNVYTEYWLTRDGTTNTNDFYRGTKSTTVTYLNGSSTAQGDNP

T2: SdrF N2N3 (361-679), His-tagged recombinant fragment (Staphylococcus epidermidis (K28 genomic …, UniProt Q9KI14 361-678))
T2 construct: expressed in E. coli
T2 sequence: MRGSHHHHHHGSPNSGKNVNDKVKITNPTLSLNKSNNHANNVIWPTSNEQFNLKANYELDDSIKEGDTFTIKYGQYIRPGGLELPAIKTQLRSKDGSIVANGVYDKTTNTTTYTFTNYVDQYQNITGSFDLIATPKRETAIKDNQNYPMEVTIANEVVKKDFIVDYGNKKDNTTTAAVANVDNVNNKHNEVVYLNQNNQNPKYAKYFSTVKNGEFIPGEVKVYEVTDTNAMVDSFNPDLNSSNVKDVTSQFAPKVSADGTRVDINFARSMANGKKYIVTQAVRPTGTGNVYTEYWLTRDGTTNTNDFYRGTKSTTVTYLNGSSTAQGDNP

T3: SdrF N3 (517-679), His-tagged recombinant fragment (Staphylococcus epidermidis (K28 genomic …, UniProt Q9KI14 517-678))
T3 construct: expressed in E. coli
T3 sequence: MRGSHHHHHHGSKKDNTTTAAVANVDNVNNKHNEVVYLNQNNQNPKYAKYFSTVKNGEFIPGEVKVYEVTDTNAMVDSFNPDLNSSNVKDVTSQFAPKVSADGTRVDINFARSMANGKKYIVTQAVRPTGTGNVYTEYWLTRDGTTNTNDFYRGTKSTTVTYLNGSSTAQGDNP

T4: SdrF N2 (361-517), His-tagged recombinant fragment (Staphylococcus epidermidis (K28 genomic …, UniProt Q8CMP4 361-517))
T4 construct: expressed in E. coli
T4 sequence: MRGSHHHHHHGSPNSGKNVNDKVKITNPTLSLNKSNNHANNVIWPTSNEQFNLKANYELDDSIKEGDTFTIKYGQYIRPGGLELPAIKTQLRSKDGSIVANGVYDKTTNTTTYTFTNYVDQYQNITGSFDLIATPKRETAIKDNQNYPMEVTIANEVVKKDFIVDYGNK


What was measured:
[1] = target: T1, SdrF N1N2N3 (52-679), His-tagged …; test: Biacore 3000, ligand capture of mAb, SdrF (N1N2N3) in flow
[2] = target: T2, SdrF N2N3 (361-679), His-tagged …; test: ELISA, plate coated with SdrF N2N3, hybridoma supernatant
[3] = target: T1, SdrF N1N2N3 (52-679), His-tagged …; test: Biacore 3000, mAb captured on anti-F(ab)2 chip, SdrF (N1N2N3) in flow
[4] = target: T1, SdrF N1N2N3 (52-679), His-tagged …; test: ELISA, plate coated with SdrF N1N2N3, hybridoma supernatant
[5] = target: T1, SdrF N1N2N3 (52-679), His-tagged …; test: Biacore, mAb captured via RAM-Fc, SdrF injected
[6] = target: T3, SdrF N3 (517-679), His-tagged …; test: ELISA, plate coated with SdrF N3
[7] = target: T4, SdrF N2 (361-517), His-tagged …; test: ELISA, plate coated with SdrF N2

Row | Binder | Ka [1] | Kd [1] | koff [1] | kon [1] | ELISA OD405 [2] | Ka [3] | Kd [3] | koff [3] | kon [3] | ELISA OD405 [4] | Biacore SdrF bound [5] | binding result [6] | binding result [7]
1 | murine anti-SdrF monoclonal antibody 108-36 (antibody, V domains shown, Mouse hybridoma antibody (fusion F108)) VH: QVTLRESGPGILQPSQTLSLTCSFSGFSLNTSGMGVTWIRQPSGKGLEWLANIYWDDDKRYNPSLKSRLTISKANSRNQVFLKITSVDTADTATYYCTRPNYLGTVYWYFDVWGAGTMVTVSS VL: QIVLTQSPAIMSASPGEKVTMTCSASSSVSYMYWYQQKPGSSPRVLIYDTSNLASGVPVRFSGSGSGTSYSLTISRMEAEDAATYYCQQWNGYPPTFGAGTKLEVK | 4.5e+09 M⁻¹ | 0.22 nM | 5.6e-05 s⁻¹ | 230000 M⁻¹ s⁻¹ | 0.72 OD405 | 4.52e+09 M⁻¹ | 0.221 nM | 5.6e-05 s⁻¹ | 232000 M⁻¹ s⁻¹ | 0.77 OD405 | 146 | no binding | –
2 | Humanized 108-36 (antibody, V domains shown, N-linked carbohydrate chain on the asparagine at position 30 of the variable heavy chain, Humanized (veneered) variable regions with 'the appropriate light or heavy chain constant region', expressed in NSO cells; also called Hu108-36) VH: QVTLRESGPGILKPSQTLSLTCTFSGFSLNTSGMGVTWIRQPSGKGLEWLANIYWDDDKRYNPSLKSRLTISKANSRNQVFLKITSVDPVDTATYYCTRPNYLGTVYWYFDVWGQGTMVTVSS VL: EIVLTQSPATMSASPGERVTMSCSASSSVSYMYWYQQKPGQSPRVLIYDTSNLASGVPSRFSGSGSGTSYSLTISSMEPEDAATYYCQQWNGYPPTFGGGTKLEVK | 2.2e+09 M⁻¹ | 0.46 nM | 6.3e-05 s⁻¹ | 140000 M⁻¹ s⁻¹ | – | – | – | – | – | – | – | – | –
3 | murine anti-SdrF monoclonal antibody 110-15 (antibody, V domains shown, Mouse hybridoma antibody (fusion F110); also called Murine 110-15; 110-15VL-Mouse/110-15VH-Mouse) VH: EVQLVESGGGLVKPGGSLKLSCAASGFAFSSYDMSWVRQTPEKRLEWVAYISSGGGITYYPDTVKGRFTISRDNAKNTLYVQMSSLKSEDTAIYYCTRHDRDSWFAYWGQGTLVTVSA VL: QIVLTQSPAIMSASPGEEGTMTCSASSSVRYMYWYRQKPGSSPRLLIYDTSNLASGVPVRFSGSGSGTSYSLTISRMEAEDAATYYCQQWSSYPPTFGGGTKLEMK | 1.3e+08 M⁻¹ | 0.77 nM | 0.00016 s⁻¹ | 210000 M⁻¹ s⁻¹ | 0.7 OD405 | 1.29e+09 M⁻¹ | 0.774 nM | 0.000164 s⁻¹ | 212000 M⁻¹ s⁻¹ | 0.63 OD405 | 153 | no binding | no binding
4 | murine anti-SdrF monoclonal antibody 108-1 (antibody, V domains shown, Mouse hybridoma antibody (Balb/C, fusion F108)) VH: EVQLQQSGAELVKPGASVKLSCTASGFNIKDTYIHWVKQRPEQGLEWIGRIDPANGNTHYDSQFQGKATITADTSSNTAYLQLSSLTSDDTAVYYCTRRVGYAMDYWGQGTSVTVSS VL: DIVMTQSHKFMSTSVGDRVIITCKASQDVNTALAWYQQKPGQSPKLLIYSASYRYTGVPDRFTGSGSGTDFTFTISSVQAEDLAVYYCQQHYSTPPYTFGGGTKLEIK | 6.2e+08 M⁻¹ | 1.6 nM | 0.00013 s⁻¹ | 83000 M⁻¹ s⁻¹ | 0.99 OD405 | 6.2e+08 M⁻¹ | 1.61 nM | 0.000134 s⁻¹ | 82900 M⁻¹ s⁻¹ | 0.89 OD405 | 146 | – | –
5 | Humanized 108-1 (antibody, V domains shown, Humanized (veneered) variable regions spliced into plasmids with 'the appropriate light or heavy chain constant region', expressed in NSO cells) VH: QVQLVQSGAEVVKPGASVKLSCKASGFNIKDTYIHWVKQRPGQGLEWIGRIDPANGNTHYDSQFQGKATITADTSTSTAYLQLSSLRSEDTAVYYCTRRVGYAMDYWGQGTTVTVSS VL: DIVMTQSQKFMSTSVGDRVTITCKASQDVNTALAWYQQKPGQSPKLLIYSASYRYTGVPSRFSGSGSGTDFTFTISSVQAEDLAVYYCQQHYSTPPYTFGGGTKLEIK | 5.6e+08 M⁻¹ | 1.8 nM | 0.00017 s⁻¹ | 94000 M⁻¹ s⁻¹ | – | – | – | – | – | – | – | – | –
6 | Humanized 110-15 (antibody, V domains shown, Humanized (veneered) variable regions with 'the appropriate light or heavy chain constant region', expressed in NSO cells; also called 110-15VL-Hu/110-15VH-Hu) VH: EVQLVESGGGLVQPGGSLKLSCAASGFAFSSYDMSWVRQTPEKRLEWVAYISSGGGITYYPDTVKGRFTISRDNSKNTLYVQMSSLRAEDTAVYYCTRHDRDSWFAYWGQGTLVTVSS VL: EIVLTQSPGTMSASPGERGTMSCSASSSVRYMYWYRQKPGQSPRLLIYDTSNLASGVPARFSGSGSGTSYSLTISRMEAEDAATYYCQQWSSYPPTFGGGTKLEMK | 1.4e+09 M⁻¹ | 0.74 nM | 0.00013 s⁻¹ | 170000 M⁻¹ s⁻¹ | – | – | – | – | – | – | – | – | –
